Experimental data: patent publication US20180369322A1

Columns and labels:
[1] = target: rat plasma proteins; test: equilibrium dialysis, drug at 10 and 100 µM, rat plasma
[2] = target: human plasma proteins; test: equilibrium dialysis, drug at 10 and 100 µM, human plasma
[3] = target: monkey plasma proteins; test: equilibrium dialysis, drug at 10 and 100 µM, monkey plasma

Measured: in vitro plasma protein binding

R5000 (peptide)
> 99.9%: [1] | [2] | [3]
